Measurements taken from patent US20260001928A1 (CORTERIA PHARMACEUTICALS, priority 2022, published 2026).
*1 amine or outer side, *2 acyl side, *3 side chain or, on linkers, in order; H or OH if unused. Where no end group is shown, it is not given here. Side-chain parts run from the residue outwards. [ ]: non-standard residue; d: D form. The star is where a group is joined. C16 diacid = O=C(O)CCCCCCCCCCCCCCC(=O)*; γGlu = O=C(O)[C@H](CCC(=O)[*:2])N[*:1]; NMeI = CC[C@H](C)[C@H](NC)C(=O)O; αMeL = CC(C)C[C@](C)(N)C(=O)O; AEEA = NCCOCCOCC(=O)O; Aib = CC(C)(N)C(=O)O

T1: CRF1R receptor (UniProt P34998 24-415, limits assumed)
T1 sequence (looked up): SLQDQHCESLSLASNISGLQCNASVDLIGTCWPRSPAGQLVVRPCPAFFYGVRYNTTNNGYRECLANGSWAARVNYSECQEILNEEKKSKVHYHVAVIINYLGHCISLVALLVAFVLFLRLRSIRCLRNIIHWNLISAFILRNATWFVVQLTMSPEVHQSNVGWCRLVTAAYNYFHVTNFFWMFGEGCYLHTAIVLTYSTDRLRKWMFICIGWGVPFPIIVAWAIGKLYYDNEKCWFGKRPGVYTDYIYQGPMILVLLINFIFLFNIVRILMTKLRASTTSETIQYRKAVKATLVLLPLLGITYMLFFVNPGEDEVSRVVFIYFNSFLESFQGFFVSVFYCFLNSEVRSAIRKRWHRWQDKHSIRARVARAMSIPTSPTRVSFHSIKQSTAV

B1: SEQ ID NO 53 (peptide)
peptide: Ac-IVLSLD[dV]PIK[αMeL]K([γGlu-C16 diacid])KILLEQEKQKKQREQAETDKQILAQV-NH2
SMILES: CC[C@H](C)[C@H](NC(C)=O)C(=O)N[C@H](C(=O)N[C@@H](CC(C)C)C(=O)N[C@@H](CO)C(=O)N[C@@H](CC(C)C)C(=O)N[C@@H](CC(=O)O)C(=O)N[C@@H](C(=O)N1CCC[C@H]1C(=O)N[C@H](C(=O)N[C@@H](CCCCN)C(=O)N[C@@](C)(CC(C)C)C(=O)N[C@@H](CCCCNC(=O)CC[C@H](NC(=O)CCCCCCCCCCCCCCC(=O)O)C(=O)O)C(=O)N[C@@H](CCCCN)C(=O)N[C@H](C(=O)N[C@@H](CC(C)C)C(=O)N[C@@H](CC(C)C)C(=O)N[C@@H](CCC(=O)O)C(=O)N[C@@H](CCC(N)=O)C(=O)N[C@@H](CCC(=O)O)C(=O)N[C@@H](CCCCN)C(=O)N[C@@H](CCC(N)=O)C(=O)N[C@@H](CCCCN)C(=O)N[C@@H](CCCCN)C(=O)N[C@@H](CCC(N)=O)C(=O)N[C@@H](CCCNC(=N)N)C(=O)N[C@@H](CCC(=O)O)C(=O)N[C@@H](CCC(N)=O)C(=O)N[C@@H](C)C(=O)N[C@@H](CCC(=O)O)C(=O)N[C@H](C(=O)N[C@@H](CC(=O)O)C(=O)N[C@@H](CCCCN)C(=O)N[C@@H](CCC(N)=O)C(=O)N[C@H](C(=O)N[C@@H](CC(C)C)C(=O)N[C@@H](C)C(=O)N[C@@H](CCC(N)=O)C(=O)N[C@H](C(N)=O)C(C)C)[C@@H](C)CC)[C@@H](C)O)[C@@H](C)CC)[C@@H](C)CC)C(C)C)C(C)C
B2: SEQ ID NO 46 (peptide)
peptide: Ac-VLSLD[dV]PIK[αMeL]K([γGlu-C16 diacid])KILLEQEKQKKQREQAETN[Aib]QILAQV-NH2
SMILES: CC[C@H](C)[C@H](NC(=O)[C@H](CCC(N)=O)NC(=O)C(C)(C)NC(=O)[C@H](CC(N)=O)NC(=O)[C@@H](NC(=O)[C@H](CCC(=O)O)NC(=O)[C@H](C)NC(=O)[C@H](CCC(N)=O)NC(=O)[C@H](CCC(=O)O)NC(=O)[C@H](CCCNC(=N)N)NC(=O)[C@H](CCC(N)=O)NC(=O)[C@H](CCCCN)NC(=O)[C@H](CCCCN)NC(=O)[C@H](CCC(N)=O)NC(=O)[C@H](CCCCN)NC(=O)[C@H](CCC(=O)O)NC(=O)[C@H](CCC(N)=O)NC(=O)[C@H](CCC(=O)O)NC(=O)[C@H](CC(C)C)NC(=O)[C@H](CC(C)C)NC(=O)[C@@H](NC(=O)[C@H](CCCCN)NC(=O)[C@H](CCCCNC(=O)CC[C@H](NC(=O)CCCCCCCCCCCCCCC(=O)O)C(=O)O)NC(=O)[C@](C)(CC(C)C)NC(=O)[C@H](CCCCN)NC(=O)[C@@H](NC(=O)[C@@H]1CCCN1C(=O)[C@H](NC(=O)[C@H](CC(=O)O)NC(=O)[C@H](CC(C)C)NC(=O)[C@H](CO)NC(=O)[C@H](CC(C)C)NC(=O)[C@@H](NC(C)=O)C(C)C)C(C)C)[C@@H](C)CC)[C@@H](C)CC)[C@@H](C)O)C(=O)N[C@@H](CC(C)C)C(=O)N[C@@H](C)C(=O)N[C@@H](CCC(N)=O)C(=O)N[C@H](C(N)=O)C(C)C
B3: SEQ ID NO 65 (peptide)
peptide: [NMeI]VLSLD[dV]PIK[αMeL]K([γGlu-C16 diacid])KILLEQEKQKKQREQAETN[Aib]QILAQV-NH2
modifications: N-terminus assumed
SMILES: CC[C@H](C)[C@H](NC)C(=O)N[C@H](C(=O)N[C@@H](CC(C)C)C(=O)N[C@@H](CO)C(=O)N[C@@H](CC(C)C)C(=O)N[C@@H](CC(=O)O)C(=O)N[C@@H](C(=O)N1CCC[C@H]1C(=O)N[C@H](C(=O)N[C@@H](CCCCN)C(=O)N[C@@](C)(CC(C)C)C(=O)N[C@@H](CCCCNC(=O)CC[C@H](NC(=O)CCCCCCCCCCCCCCC(=O)O)C(=O)O)C(=O)N[C@@H](CCCCN)C(=O)N[C@H](C(=O)N[C@@H](CC(C)C)C(=O)N[C@@H](CC(C)C)C(=O)N[C@@H](CCC(=O)O)C(=O)N[C@@H](CCC(N)=O)C(=O)N[C@@H](CCC(=O)O)C(=O)N[C@@H](CCCCN)C(=O)N[C@@H](CCC(N)=O)C(=O)N[C@@H](CCCCN)C(=O)N[C@@H](CCCCN)C(=O)N[C@@H](CCC(N)=O)C(=O)N[C@@H](CCCNC(=N)N)C(=O)N[C@@H](CCC(=O)O)C(=O)N[C@@H](CCC(N)=O)C(=O)N[C@@H](C)C(=O)N[C@@H](CCC(=O)O)C(=O)N[C@H](C(=O)N[C@@H](CC(N)=O)C(=O)NC(C)(C)C(=O)N[C@@H](CCC(N)=O)C(=O)N[C@H](C(=O)N[C@@H](CC(C)C)C(=O)N[C@@H](C)C(=O)N[C@@H](CCC(N)=O)C(=O)N[C@H](C(N)=O)C(C)C)[C@@H](C)CC)[C@@H](C)O)[C@@H](C)CC)[C@@H](C)CC)C(C)C)C(C)C
B4: SEQ ID NO 148 (peptide)
peptide: IVLSLD[dV]PIKLK([AEEA-AEEA-γGlu-C16 diacid])QILLKQERQKKQREQAEKNKQILEQV-NH2
B5: SEQ ID NO 67 (peptide)
peptide: [NMeI]VLSLD[dV]PIK[αMeL]K([γGlu-C16 diacid])KILLEQEKQKKQREQAETNVQILAQV-NH2
modifications: N-terminus assumed
SMILES: CC[C@H](C)[C@H](NC)C(=O)N[C@H](C(=O)N[C@@H](CC(C)C)C(=O)N[C@@H](CO)C(=O)N[C@@H](CC(C)C)C(=O)N[C@@H](CC(=O)O)C(=O)N[C@@H](C(=O)N1CCC[C@H]1C(=O)N[C@H](C(=O)N[C@@H](CCCCN)C(=O)N[C@@](C)(CC(C)C)C(=O)N[C@@H](CCCCNC(=O)CC[C@H](NC(=O)CCCCCCCCCCCCCCC(=O)O)C(=O)O)C(=O)N[C@@H](CCCCN)C(=O)N[C@H](C(=O)N[C@@H](CC(C)C)C(=O)N[C@@H](CC(C)C)C(=O)N[C@@H](CCC(=O)O)C(=O)N[C@@H](CCC(N)=O)C(=O)N[C@@H](CCC(=O)O)C(=O)N[C@@H](CCCCN)C(=O)N[C@@H](CCC(N)=O)C(=O)N[C@@H](CCCCN)C(=O)N[C@@H](CCCCN)C(=O)N[C@@H](CCC(N)=O)C(=O)N[C@@H](CCCNC(=N)N)C(=O)N[C@@H](CCC(=O)O)C(=O)N[C@@H](CCC(N)=O)C(=O)N[C@@H](C)C(=O)N[C@@H](CCC(=O)O)C(=O)N[C@H](C(=O)N[C@@H](CC(N)=O)C(=O)N[C@H](C(=O)N[C@@H](CCC(N)=O)C(=O)N[C@H](C(=O)N[C@@H](CC(C)C)C(=O)N[C@@H](C)C(=O)N[C@@H](CCC(N)=O)C(=O)N[C@H](C(N)=O)C(C)C)[C@@H](C)CC)C(C)C)[C@@H](C)O)[C@@H](C)CC)[C@@H](C)CC)C(C)C)C(C)C
B6: SEQ ID NO 50 (peptide)
peptide: Ac-IVLSLD[dV]PIK[αMeL]K([γGlu-C16 diacid])KILLEQEKQKKQREQAETNVQILAQV-NH2
SMILES: CC[C@H](C)[C@H](NC(C)=O)C(=O)N[C@H](C(=O)N[C@@H](CC(C)C)C(=O)N[C@@H](CO)C(=O)N[C@@H](CC(C)C)C(=O)N[C@@H](CC(=O)O)C(=O)N[C@@H](C(=O)N1CCC[C@H]1C(=O)N[C@H](C(=O)N[C@@H](CCCCN)C(=O)N[C@@](C)(CC(C)C)C(=O)N[C@@H](CCCCNC(=O)CC[C@H](NC(=O)CCCCCCCCCCCCCCC(=O)O)C(=O)O)C(=O)N[C@@H](CCCCN)C(=O)N[C@H](C(=O)N[C@@H](CC(C)C)C(=O)N[C@@H](CC(C)C)C(=O)N[C@@H](CCC(=O)O)C(=O)N[C@@H](CCC(N)=O)C(=O)N[C@@H](CCC(=O)O)C(=O)N[C@@H](CCCCN)C(=O)N[C@@H](CCC(N)=O)C(=O)N[C@@H](CCCCN)C(=O)N[C@@H](CCCCN)C(=O)N[C@@H](CCC(N)=O)C(=O)N[C@@H](CCCNC(=N)N)C(=O)N[C@@H](CCC(=O)O)C(=O)N[C@@H](CCC(N)=O)C(=O)N[C@@H](C)C(=O)N[C@@H](CCC(=O)O)C(=O)N[C@H](C(=O)N[C@@H](CC(N)=O)C(=O)N[C@H](C(=O)N[C@@H](CCC(N)=O)C(=O)N[C@H](C(=O)N[C@@H](CC(C)C)C(=O)N[C@@H](C)C(=O)N[C@@H](CCC(N)=O)C(=O)N[C@H](C(N)=O)C(C)C)[C@@H](C)CC)C(C)C)[C@@H](C)O)[C@@H](C)CC)[C@@H](C)CC)C(C)C)C(C)C
B7: SEQ ID NO 44 (peptide)
peptide: Ac-IVLSLD[dV]PIK[αMeL]K([γGlu-C16 diacid])KILLEQEKQKKQREQAETN[Aib]QILAQV-NH2
SMILES: CC[C@H](C)[C@H](NC(C)=O)C(=O)N[C@H](C(=O)N[C@@H](CC(C)C)C(=O)N[C@@H](CO)C(=O)N[C@@H](CC(C)C)C(=O)N[C@@H](CC(=O)O)C(=O)N[C@@H](C(=O)N1CCC[C@H]1C(=O)N[C@H](C(=O)N[C@@H](CCCCN)C(=O)N[C@@](C)(CC(C)C)C(=O)N[C@@H](CCCCNC(=O)CC[C@H](NC(=O)CCCCCCCCCCCCCCC(=O)O)C(=O)O)C(=O)N[C@@H](CCCCN)C(=O)N[C@H](C(=O)N[C@@H](CC(C)C)C(=O)N[C@@H](CC(C)C)C(=O)N[C@@H](CCC(=O)O)C(=O)N[C@@H](CCC(N)=O)C(=O)N[C@@H](CCC(=O)O)C(=O)N[C@@H](CCCCN)C(=O)N[C@@H](CCC(N)=O)C(=O)N[C@@H](CCCCN)C(=O)N[C@@H](CCCCN)C(=O)N[C@@H](CCC(N)=O)C(=O)N[C@@H](CCCNC(=N)N)C(=O)N[C@@H](CCC(=O)O)C(=O)N[C@@H](CCC(N)=O)C(=O)N[C@@H](C)C(=O)N[C@@H](CCC(=O)O)C(=O)N[C@H](C(=O)N[C@@H](CC(N)=O)C(=O)NC(C)(C)C(=O)N[C@@H](CCC(N)=O)C(=O)N[C@H](C(=O)N[C@@H](CC(C)C)C(=O)N[C@@H](C)C(=O)N[C@@H](CCC(N)=O)C(=O)N[C@H](C(N)=O)C(C)C)[C@@H](C)CC)[C@@H](C)O)[C@@H](C)CC)[C@@H](C)CC)C(C)C)C(C)C

Tests used:
CRF1R receptor = target: T1, CRF1R receptor; assay: cell-based or functional assay
[1] = target: human corticotropin-releasing factor 2a (CRF2a receptor) (human), Q13324; assay: cell-based or functional assay
Sequence of human corticotropin-releasing factor 2a (CRF2a receptor) (human), Q13324 (Q13324 20-411): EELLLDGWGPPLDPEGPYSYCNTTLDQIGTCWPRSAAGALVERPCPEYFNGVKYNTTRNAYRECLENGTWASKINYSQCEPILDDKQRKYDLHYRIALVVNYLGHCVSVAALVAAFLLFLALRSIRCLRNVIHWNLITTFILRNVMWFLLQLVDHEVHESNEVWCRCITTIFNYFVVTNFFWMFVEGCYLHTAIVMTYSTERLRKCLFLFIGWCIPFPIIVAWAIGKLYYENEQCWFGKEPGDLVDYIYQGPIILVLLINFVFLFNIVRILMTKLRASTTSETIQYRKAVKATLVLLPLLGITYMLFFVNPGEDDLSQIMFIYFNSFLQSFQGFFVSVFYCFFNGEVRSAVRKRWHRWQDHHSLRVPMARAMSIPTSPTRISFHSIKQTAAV

Binder | Emax (% I) (CRF1R receptor) | EC50 [nM] (cAMP) [1] | EC50 (CRF1R receptor)
B1 | 5% | 8.05 nM | –
B2 | 6% | 0.7 nM | –
B3 | 10% | 0.1 nM | –
B4 | 13% | 0.65 nM | 100 nM
B5 | 8% | 0.34 nM | –
B6 | 9% | 0.26 nM | –
B7 | 5% | 0.25 nM | –
